Data reported in paper PMC9424912.

Target: soluble CD8αα (human)
Test: SPR

Row | Kd [µM] | Substance
1 | 228 | HLA-A*02:01-NLV monomer (WT) (from UniProt P61769 21-119) (peptide-MHC)
2 | 177 | soluble MR1-β2m-Ac-6-FP monomer (WT) (from UniProt Q95460 23-292; P61769 21-119) (complex)
